For experiment [1], the target named is mouse CD5 on murine T cells (mouse) (UniProt P13379). The experiment in a line: cell-based or functional assay.
Experiment [2] deals with human CD5 on human ACH2 immortalized T cells (human) (UniProt P06127). The experiment in a line: cell-based or functional assay.
UniProt P06127, sequence (P06127 25-495 limits assumed): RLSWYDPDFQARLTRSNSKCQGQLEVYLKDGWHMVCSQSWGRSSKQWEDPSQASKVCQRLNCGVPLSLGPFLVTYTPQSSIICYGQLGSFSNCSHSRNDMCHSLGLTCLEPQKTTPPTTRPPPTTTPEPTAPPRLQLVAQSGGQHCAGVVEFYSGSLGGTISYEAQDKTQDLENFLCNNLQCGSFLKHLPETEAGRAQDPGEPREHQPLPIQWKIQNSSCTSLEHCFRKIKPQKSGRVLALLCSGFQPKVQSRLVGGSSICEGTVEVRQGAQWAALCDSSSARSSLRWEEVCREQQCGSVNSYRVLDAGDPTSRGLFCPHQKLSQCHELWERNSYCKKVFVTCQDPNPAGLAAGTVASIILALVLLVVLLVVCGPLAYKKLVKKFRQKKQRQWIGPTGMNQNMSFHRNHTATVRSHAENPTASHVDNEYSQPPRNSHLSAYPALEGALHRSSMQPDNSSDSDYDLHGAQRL

UniProt P13379, sequence (P13379 24-494 limits assumed): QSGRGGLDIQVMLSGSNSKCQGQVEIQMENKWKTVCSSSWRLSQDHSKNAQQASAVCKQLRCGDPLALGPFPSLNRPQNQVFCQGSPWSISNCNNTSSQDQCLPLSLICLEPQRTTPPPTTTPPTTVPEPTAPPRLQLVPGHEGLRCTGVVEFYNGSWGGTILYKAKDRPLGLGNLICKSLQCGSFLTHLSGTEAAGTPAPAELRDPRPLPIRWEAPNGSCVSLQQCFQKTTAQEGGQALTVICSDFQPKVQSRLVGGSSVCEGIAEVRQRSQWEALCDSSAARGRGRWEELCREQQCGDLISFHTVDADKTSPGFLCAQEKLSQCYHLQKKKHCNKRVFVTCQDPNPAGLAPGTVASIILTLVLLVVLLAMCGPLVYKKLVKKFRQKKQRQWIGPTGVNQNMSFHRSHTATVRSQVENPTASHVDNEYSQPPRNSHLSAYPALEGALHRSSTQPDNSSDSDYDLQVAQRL

In experiment [1], “control isotype matched IgG conjugated to LNP-mRNA (antibody)” registered a percent of murine T cells receiving mRNA in vitro from IgG/LNP (flow cytometry) of 7%.
Regarding “mouse anti-human CD5, clone UCHT2 (BioLegend), conjugated to LNP-mRNA (antibody)”, the percent gene transfer (GFP) in human ACH2 T cells with CD5/LNP-GFP in vitro in experiment [2] fell in the range of 89 to 93%.
For “purified rat anti-mouse CD5, clone 53-7.3 (BioLegend), conjugated to LNP-mRNA (antibody)”, in experiment [1], the ZsGreen expression in CD4+ splenocytes of Ai6 mice 24 h after 30 ug CD5/LNP-Cre was 81.1%, the ZsGreen expression in CD8+ splenocytes of Ai6 mice 24 h after 30 ug CD5/LNP-Cre came to 75.6%, the percent FAPCAR T cells in spleen 48 h after CD5/LNP-FAPCAR injection lay in the range of 17.5 to 24.7% and the percent of murine T cells expressing FAPCAR after 48 h in vitro with CD5/LNP-FAPCAR (flow cytometry) worked out at 83%. Further, the percent of murine T cells expressing GFP after 48 h in vitro with CD5/LNP-GFP (flow cytometry) in experiment [1] worked out at 78%.

For the origin of these results see US20230312713A1.
